# Paper PMC6483365
# pKd: −log10 of the molar value.
# Legend:
# [1] = tested on: recombinant hemagglutinin H1 (Influenza A virus (H1 subtype, strain not stated)); assay: SPR; conditions: […], pH 7.4), 25 C, room temperature, 1 h
# [2] = tested on: recombinant hemagglutinin H5 (Influenza A virus (H5 subtype, strain not stated)); assay: SPR; conditions: […], pH 7.4), 25 C, room temperature, 1 h
# [3] = tested on: recombinant hemagglutinin H9 (Influenza A virus (H9 subtype, strain not stated)); assay: SPR; conditions: […], pH 7.4), 25 C, room temperature, 1 h
# [4] = tested on: recombinant hemagglutinin H3 (Influenza A virus (H3 subtype, strain not stated)); assay: SPR; conditions: […], pH 7.4), 25 C, room temperature, 1 h
# [5] = tested on: recombinant hemagglutinin H7 (Influenza A virus (H7 subtype, strain not stated)); assay: SPR; conditions: […], pH 7.4), 25 C, room temperature, 1 h
# [6] = tested on: hemagglutinin on whole virus (Influenza A virus A/mallard/Sweden/91/2002 (H7N9)); assay: ELAA; conditions: […], pH 7.4), 25 C, […], room temperature, 1 h
# [7] = tested on: hemagglutinin on whole virus (Influenza A virus A/Primorie/3631/2002 (H9N2)); assay: ELAA; conditions: […], pH 7.4), 25 C, […], room temperature, 1 h
# [8] = tested on: hemagglutinin on whole virus (Influenza A virus A/England/42/1972 (H3N2)); assay: ELAA; conditions: […], pH 7.4), 25 C, […], room temperature, 1 h
# [9] = tested on: hemagglutinin on whole virus (Influenza A virus A/duck/Primorie/3691/2002 (H12N2)); assay: ELAA; conditions: […], pH 7.4), 25 C, […], room temperature, 1 h
# [10] = target: hemagglutinin on whole virus (Influenza A virus A/Aichi/2/1968 (H3N2)) (UniProt P03437); assay: ELAA
# [11] = target: hemagglutinin on whole virus (Influenza A virus A/Vietnam/1203/2004-PR8/CDC-R (H5N1)) (UniProt Q6DQ33); assay: ELAA; conditions: […], pH 7.4), 25 C, […], room temperature, 1 h
# [12] = target: hemagglutinin on whole virus (Influenza A virus A/Puerto-Rico/8/1934 (H1N1)) (UniProt P03452); assay: ELAA
# Chain of hemagglutinin on whole virus (Influenza A virus A/Puerto-Rico/8/1934 (H1N1)) (P03452 whole entry): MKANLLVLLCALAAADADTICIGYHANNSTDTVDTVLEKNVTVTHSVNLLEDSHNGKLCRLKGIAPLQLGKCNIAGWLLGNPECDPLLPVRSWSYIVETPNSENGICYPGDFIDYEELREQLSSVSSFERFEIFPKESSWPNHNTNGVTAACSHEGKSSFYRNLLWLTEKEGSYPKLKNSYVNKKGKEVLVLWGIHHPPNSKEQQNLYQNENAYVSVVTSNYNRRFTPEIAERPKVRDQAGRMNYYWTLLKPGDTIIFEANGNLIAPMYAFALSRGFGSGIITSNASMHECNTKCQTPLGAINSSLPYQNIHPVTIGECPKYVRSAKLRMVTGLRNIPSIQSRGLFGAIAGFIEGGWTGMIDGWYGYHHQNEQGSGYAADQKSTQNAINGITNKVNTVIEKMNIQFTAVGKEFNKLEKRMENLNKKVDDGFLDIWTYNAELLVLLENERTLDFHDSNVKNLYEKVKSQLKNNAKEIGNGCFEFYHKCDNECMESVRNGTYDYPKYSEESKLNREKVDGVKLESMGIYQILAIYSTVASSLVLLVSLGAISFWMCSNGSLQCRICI
# [13] = tested on: hemagglutinin on whole virus (Influenza A virus A/tern/South Africa/1/1961 (H5N3)); assay: ELAA; conditions: […], pH 7.4), 25 C, […], room temperature, 1 h
# [14] = target: hemagglutinin on whole virus (Influenza A virus A/New Caledonia/20/1999 (H1N1)) (UniProt Q6WG00); assay: ELAA; conditions: […], pH 7.4), 25 C, […], room temperature, 1 h
# [15] = tested on: hemagglutinin on whole virus (Influenza A virus A/England/42/1972 (H3N2)); assay: SERS sandwich; conditions: […], pH 7.4), 25 C, […], room temperature, 1 h
# [16] = tested on: hemagglutinin on whole virus (Influenza A virus A/duck/Primorie/3691/2002 (H12N2)); assay: SERS sandwich; conditions: […], pH 7.4), 25 C, […], room temperature, 1 h
# [17] = tested on: hemagglutinin on whole virus (Influenza A virus A/duck/Moscow/4182/2010 (H5N3)); assay: SERS sandwich; conditions: […], pH 7.4), 25 C, […], room temperature, 1 h
# [18] = target: hemagglutinin on whole virus (Influenza A virus A/Aichi/2/1968 (H3N2)) (UniProt P03437); assay: SERS sandwich
# [19] = target: hemagglutinin on whole virus (Influenza A virus A/Vietnam/1203/2004-PR8/CDC-R (H5N1)) (UniProt Q6DQ33); assay: SERS sandwich; conditions: […], pH 7.4), 25 C, […], room temperature, 1 h
# [20] = tested on: hemagglutinin on whole virus (Influenza A virus A/tern/South Africa/1/1961 (H5N3)); assay: SERS sandwich; conditions: […], pH 7.4), 25 C, […], room temperature, 1 h
# [21] = tested on: hemagglutinin on whole virus (Influenza A virus A/Mississippi/1/1985 (H3N2)); assay: SERS sandwich; conditions: […], pH 7.4), 25 C, […], room temperature, 1 h
# [22] = target: hemagglutinin on whole virus (Influenza A virus A/New Caledonia/20/1999 (H1N1)) (UniProt Q6WG00); assay: SERS sandwich; conditions: […], pH 7.4), 25 C, […], room temperature, 1 h
# [23] = tested on: hemagglutinin on whole virus (Influenza A virus A/Primorie/3/1982 (H9N2)); assay: SERS sandwich; conditions: […], pH 7.4), 25 C, […], room temperature, 1 h
# [24] = tested on: hemagglutinin on whole virus (Influenza A virus A/Buryatia/2408/2001 (H4N6)); assay: SERS sandwich; conditions: […], pH 7.4), 25 C, […], room temperature, 1 h
# [25] = tested on: hemagglutinin on whole virus (Influenza A virus A/Buryatia/652/1988 (H3N8)); assay: SERS sandwich; conditions: […], pH 7.4), 25 C, […], room temperature, 1 h
sequence,measurement,setting,value
TTGGGGTTATTTTGGGAGGGCGGGGGTT [RHA0385],pKd,[1],8.15
same,pKd,[2],7.89
same,pKd,[3],7.85
same,pKd,[4],7.92
same,pKd,[5],7.92
TTGGGGTTATTTTGGGAGGGCGGGGGTT [RHA0385-Biotin],pKd,[6],7.89
same,pKd,[7],7.80
same,pKd,[8],7.40
same,pKd,[9],< 6.70
same,pKd,[10],7.77
same,pKd,[11],7.47
same,pKd,[12],7.89
same,pKd,[13],6.70
same,pKd,[14],7.38
TTGGGGTTATTTTGGGAGGGCGGGGGTT [RHA0385-Cy3],binding signal (relative SERS signal),[15],3
same,binding signal (relative SERS signal),[16],5
same,binding signal (relative SERS signal),[17],2.9
same,binding signal (relative SERS signal),[18],4.1
same,binding signal (relative SERS signal),[19],4.8
same,binding signal (relative SERS signal),[20],6.5
same,binding signal (relative SERS signal),[21],4.3
same,binding signal (relative SERS signal),[22],1.7
same,binding signal (relative SERS signal),[23],2.4
same,binding signal (relative SERS signal),[24],6.9
same,binding signal (relative SERS signal),[25],2.4
